Results taken from patent US20250297255A1 (ARSENAL BIOSCIENCES, published 2025).

B1: TMPRSS4 Ab22 scFv (VH-VL) (scFv)
scFv: QVQLVQSGAEVKKPGASVKVSCKASGYTFTSYYMHWVRQAPGQGLEWMGRINPHSGDADFVDKFQGRVTMTRDTSTSTVYMELSSLRSEDTAVYYCARDRRGYGGNSLDYWGQGTLVTVSSGGGGSGGGGSGGGGSDIQMTQSPSSLSASVGDRVTITCRAGQNIKRYLNWYQQKPGKAPKLLIYAASSLQSGVPSRFSGSGSGTDFTLTISSLQPEDFATYYCQQSYSSPLTFGGGTKVEIK
notes: on monoclonal phage in the screen
B2: TMPRSS4 Ab15 scFv (VH-VL) (scFv)
scFv: QVQLVQSGAEVKKPGASVKVSCKASGYTFTRYYMHWVRQAPGQGLEWMGWINPNSGVTNFAQKFQGRVTMTRDTSTSTVYMELSSLRSEDTAVYYCARVRIGWLQSPPLYWGQGTLVTVSSGGGGSGGGGSGGGGSDIQMTQSPSSLSASVGDRVTITCRASQSINTWLAWYQQKPGKAPKLLIYAASSLQSGVPSRFSGSGSGTDFTLTISSLQPEDFATYYCQQAISFPLTFGGGTKVEIK
notes: as for B1
B3: TMPRSS4 Ab46 scFv (VH-VL) (scFv)
scFv: QVQLVQSGAEVKKPGASVKVSCKASGYTFSRYFMHWVRQAPGQGLEWMGWINPNSGGTNYAQKFQGRVTMTRDTSTSTVYMELSSLRSEDTAVYYCARVRIGWLQSPPLYWGQGTLVTVSSGGGGSGGGGSGGGGSDIQMTQSPSSLSASVGDRVTITCRASQSISTWLAWYQQKPGKAPKLLIYAASSLQSGVPSRFSGSGSGTDFTLTISSLQPEDFATYYCQQSYGFPWTFGQGTKVEIK
notes: as for B1
B4: TMPRSS4 Ab14 scFv (VH-VL) (scFv)
scFv: EVQLLESGGGLVQPGGSLRLSCAASGFTFSNHYMSWVRQAPGKGLEWVSAISGSGGSTYYADSVKGRFTISRDNSKNTLYLQMNSLRAGDTAVYYCARDRYRWGRGYFQHWGQGTLVTVSSGGGGSGGGGSGGGGSDIQMTQSPSSLSASVGDRVTITCRASQRISTYLNWYQQKPGKAPKLLIYSASTLQAGVPSRFSGSGSGTDFTLTISSLQPEDFATYYCQQAYSLPWTFGQGTKLEIK
notes: as for B1
B5: TMPRSS4 Ab16 scFv (VH-VL) (scFv)
scFv: QVQLVQSGAEVKKPGASVKVSCKASGYTFSRHYMHWVRQAPGQGLEWMGRINPNSGGTNYAQKFQGRVTMTRDTSTSTVYMELSSLRSEDTAVYYCARSIYGDYWFDPWGQGTLVTVSSGGGGSGGGGSGGGGSDIQMTQSPSSLSASVGDRVTITCRASQSINRWLAWYQQKPGKAPKLLIYGASNLQSGVPSRFSGSGSGTDFTLTISSLQPEDFATYYCQQANSFPYTFGQGTKLEIK
notes: as for B1
B6: TMPRSS4 Ab2 scFv (VH-VL) (scFv)
scFv: EVQLLESGGGLVQPGGSLRLSCAASGFTFSDYYMSWVRQAPGKGLEWVSYISGSGDAIYYADSVKGRFTISRDNSKNTLYLQMNSLRAEDTAVYYCARDRSDCGGDDRFLCDGYFDLWGRGTLVSLSGGGGSGGGGSGGGGSDIQMTQSPSSLSASVGDRVTITCRASQSTNNYVNWYQQKPGKAPKLLIYAASSLQSGVPSRFSGSGSGTDFTLTISSLQPEDFATYYCQQSYSIPLTFGPGTKVDIK
notes: as for B1
B7: TMPRSS4 Ab25 scFv (VH-VL) (scFv)
scFv: QVQLVQSGAEVKKPGASVKVSCKASGGRFSTYALSWVRQAPGQGLEWMGWINPNSGGTNYAQKFQGRVTMTRDTSTSTVYMELSSLRSEDTAVYYCAKSLWWSPSHYYYYGMDVWGQGTTVTVSSGGGGSGGGGSGGGGSEIVMTQSPATLSVSPGERATLSCRASQSVSSNYLAWYQQKPGQAPRLLIYGISTRASGIPARFSGSGSGTEFTLTISSLQSEDFAVYYCQQRSNWPPSITFGQGTRLEIK
notes: as for B1
B8: TMPRSS4 Ab17 scFv (VH-VL) (scFv)
scFv: QVQLVQSGAEVKKPGASVKVSCKASGYTFTSYYIHWVRQAPGQGLEWMGWMSPNSGDTGYAQKFQGRVTMTRDTSTSTVYMELSSLRSEDTAVYYCARLVRGGFDYWGQGTLVTVSSGGGGSGGGGSGGGGSDIQMTQSPSSLSASVGDRVTITCRASQGISSYLNWYQQKPGKAPKLLIYAASRLQSGVPSRFSGSGSGTDFTLTISSLQPEDFATYYCQQSYRSPPTFGQGTKLEIK
notes: as for B1
B9: TMPRSS4 Ab24 scFv (VH-VL) (scFv)
scFv: QVQLVQSGAEVKKSGASVKVSCKASGYTFTSYYMHWVRQAPGQGLEWMGVINPSGGTTSYAQKFQGRVTMTRETSTSTVYMELSSLRSEDTAVYYCARGRGWLRSALGYWGQGTLVTVSSGGGGSGGGGSGGGGSDIQMTQSPSSLSASVGDRVTITCRASQSISSWLAWYQQKPGKAPKLLIYAASTLQSGVPSRFSGSGSGTDFTLTISSLQPEDFATYYCQQSYNTPYTFGQGTKLEIK
notes: as for B1
B10: TMPRSS4 Ab20 scFv (VH-VL) (scFv)
scFv: QVQLVQSGAEVKKPGASVKVSCKASGYTFTRYYMHWVRQAPGQGLEWMGWMNPNSGNAGYAQKLQGRVTMTRDTSTSTVYMELSSLRSEDTAVYYCARGYNWFDPWGQGTLVTVSSGGGGSGGGGSGGGGSDIQMTQSPSSLSASVGDRVTITCRASQNIATYLSWYQQKPGKAPKLLIYGASALRSGVPSRFSGSGSGTDFTLTISSLQPEDFATYYCLQHNTYPLTFGGGTKVEIK
notes: as for B1
B11: TMPRSS4 Ab12 scFv (VH-VL) (scFv)
scFv: QVQLVQSGAEVKKPGASVKVSCKASGYTFSNYYIHWVRQAPGQGLEWMGWINPNSGDTNYAQKFQGRVTMTRDTSTSTVYMELSSLRSEDTAVYYCARGMTWRTSAATYWGQGTLVTVSSGGGGSGGGGSGGGGSDIQMTQSPSSLSASVGDRVTITCRASQGISRWLAWYQQKPGKAPKLLIYGASNLQTGVPSRFSGSGSGTDFTLTISSLQPEDFATYYCQQSYSTPPTFGPGTKVDIK
notes: as for B1
B12: TMPRSS4 Ab27 scFv (VH-VL) (scFv)
scFv: QVQLVQSGAEVKKPGASVKVSCKASGYTFSRYYMHWVRQAPGQGLEWMGWMNPNSGDTGYAQKFQGRVTMTRDTSTSTVYMELSSLRSEDTAVYYCAKGREWLRSPFDYWGQGTLVTVSSGGGGSGGGGSGGGGSDIQMTQSPSSLSASVGDRVTITCRASQSISTWLAWYQQKPGKAPKLLIYAASSLQSGVPSRFSGSGSGTDFTLTISSLQPEDFATYYCQQLSSYPLTFGQGTKVEIK
notes: as for B1
B13: TMPRSS4 Ab23 scFv (VH-VL) (scFv)
scFv: QVQLVQSGAEVKKPGASVKVSCKASGYTFTRNYLHWVRQAPGQGLEWMGIINPSGGSTTYAQKFQGRVTMTRDTSTSTVYMELSSLRSEDTAVYYCARGRTWFRSGMDVWGQGTTVTVSSGGGGSGGGGSGGGGSEIVMTQSPATLSVSPGERATLSCRASQSVGNYLAWYQQKPGQAPRLLIYGASTRATGIPARFSGSGSGTEFTLTISSLQSEDFAVYYCQQYHSSPPYTFGQGTKVEIK
notes: as for B1
B14: TMPRSS4 Ab1 scFv (VH-VL) (scFv)
scFv: QVQLVQSGAEVKKPGSSVKVSCKASGYTFTDYYMHWVRQAPGQGLEWMGGIIPIFGTANYAQKFQGRVTITADESTSTAYMELSSLRSEDTAVYYCAKEGANGYWGQGTLVTVSSGGGGSGGGGSGGGGSDIQMTQSPSSLSASVGDRVTITCQASQDISNYLNWYQQKPGKAPKLLIYKASSLESGVPSRFSGSGSGTDFTLTISSLQPEDFATYYCQQSSRIPPTFGQGTKVEIK
notes: as for B1
B15: TMPRSS4 Ab11 scFv (VH-VL) (scFv)
scFv: QVQLVQSGAEVKKPGASVKVSCKASGGTFSNYAISWVRQAPGQGLEWVGRINPNSGGTNYAQKFQGRVTMTRDTSTSTVYMELSSLRSEDTAVYYCARGRYSSSSWGQGTLVTVSSGGGGSGGGGSGGGGSDIQMTQSPSSLSASVGDRVTITCRASQSINNYLNWYQQKPGKAPKLLIYAASSLQSGVPSRFSGSGSGTDFTLTISSLQPEDFATYYCQQSYSTKWTFGQGTKVEIK
notes: as for B1
B16: TMPRSS4 Ab10 scFv (VH-VL) (scFv)
scFv: QVQLVQSGAEVKKPGASVKVSCKASGYTFTSYYMHWVRQAPGQGLEWMGIINPSGAGTTYGHNFQGRVTMTRDTSTSTVYMELSSLRSEDTAVYYCARGPRDTAMVRFDYWGQGTLVTVSSGGGGSGGGGSGGGGSEIVMTQSPATLSVSPGERATLSCRASQSVSSYLAWYQQKPGQAPRLLIYGASTRATGIPARFSGSGSGTEFTLTISSLQSEDFAVYYCQQYGSSPGTFGQGTKLEIK
notes: as for B1
B17: TMPRSS4 Ab18 scFv (VH-VL) (scFv)
scFv: QVQLVQSGAEVKKPGASVKVSCKASGYTFTSSGINWVRQAPGQGLEWMGWINPNSGGAKYAQRFQGRVTMTRDTSTSTVYMELSSLRSEDTAVYYCARARGYSGSKRDFQHWGQGTLVTVSSGGGGSGGGGSGGGGSDIVMTQSPDSLAVSLGERATINCKSSQSVLYSSNNKNYLAWYQQKPGQPPKLLIYWASTRESGVPDRFSGSGSGTDFTLTISSLQAEDVAVYHCQQYYNTPFTFGPGTKVDIK
notes: as for B1
B18: TMPRSS4 Ab13 scFv (VH-VL) (scFv)
scFv: QVQLVQSGAEVKKPGASVKVSCKASGYTFTNYYMHWVRQAPGQGLEWMGWISAYNGNTNYAQKLQGRVTMTRDTSTSTVYMELSSLRSEDTAVYYCATASGWGHSNSAGYWGQGTLVTVSSGGGGSGGGGSGGGGSEIVMTQSPATLSVSPGERATLSCRASQSVNGNYLAWYQQKPGQAPRLLIYGVSSRASGIPARFSGSGSGTEFTLTISSLQSEDFAVYYCQQYGSSPYTFGQGTKVEIK
notes: as for B1
B19: TMPRSS4 Ab26 scFv (VH-VL) (scFv)
scFv: EVQLLESGGGLVQPGGSLRLSCAASGFTFSSYAMHWVRQAPGKGLEWVAVIWYDGSSKYYADSVKGRFTISRDNSKNTLYLQMNSLRAEDTAVYYCARGEVRRGFQHWGQGTLVTVSSGGGGSGGGGSGGGGSDIQMTQSPSSLSASVGDRVTITCRASQNVGSWLAWYQQKPGKAPKLLIYAASSLQSGVPSRFSGSGSGTDFTLTIRSLQPEDFATYYCQQSYSTPITFGQGTRLEIK
notes: as for B1
B20: TMPRSS4 Ab19 scFv (VH-VL) (scFv)
scFv: QVQLVQSGAEVKKPGASVKVSCKASGYTFNRKFMHWVRQAPGQGLEWMGWMNPNNGATNYAQKFQGRVTMTRDTSTSTVYMELSSLRSEDTAVYYCARGRGYYGSGSYYGDYWGQGTLVTVSSGGGGSGGGGSGGGGSDIQMTQSPSSLSASVGDRVTITCRASQSISRYLNWYQQKPGKAPKLLIYGASNLQSGVPSRFSGSGSGTDFTLTISSLQPEDFATYYCQQSYSTPPTFGPGTKVDIK
notes: as for B1

Molecular target: T1, Human TMPRSS4 (Transmembrane protease, serine 4), wild type full length (human, UniProt Q9NRS4 1-437)
T1 construct: Type II membrane protein over-expressed on HEK293T cells (also endogenous on H1975 and LUDLU-1 cells); also called TMPRSS4 WT; HEK293T-TMPRSS4
Assay: flow cytometry, monoclonal phage on HEK293T-TMPRSS4 cells;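 further: bound phage detected with a PE-labelled mouse anti-M13 monoclonal antibody, read by flow cytometry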
Description: Monoclonal phages were prepared, screened for binding to HEK293T-TMPRSS4 cells by flow cytometry. Monoclonal phage clones were incubated with HEK293T-TMPRSS4 cells, the cells were washed and then incubated with a PE conjugated mouse anti-M13 mAb, and washed again before being analyzed by flow cytometry. The positive candidates were selected based on cytometry results, then followed by next-gen sequencing of the positive hits.

T1 sequence (Q9NRS4 whole entry): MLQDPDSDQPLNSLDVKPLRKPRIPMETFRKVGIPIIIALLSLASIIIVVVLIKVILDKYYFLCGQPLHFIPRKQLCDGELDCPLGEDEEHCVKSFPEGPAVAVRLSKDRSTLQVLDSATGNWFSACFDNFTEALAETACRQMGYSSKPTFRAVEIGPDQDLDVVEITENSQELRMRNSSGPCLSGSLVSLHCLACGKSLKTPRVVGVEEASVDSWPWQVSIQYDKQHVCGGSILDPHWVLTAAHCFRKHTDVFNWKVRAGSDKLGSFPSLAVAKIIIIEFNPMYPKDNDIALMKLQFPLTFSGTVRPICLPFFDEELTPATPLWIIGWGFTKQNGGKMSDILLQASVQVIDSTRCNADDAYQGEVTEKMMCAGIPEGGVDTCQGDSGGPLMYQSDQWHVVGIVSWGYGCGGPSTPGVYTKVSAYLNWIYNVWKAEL

| Binder | binding result |
| --- | --- |
| B1 | binds |
| B2 | binds |
| B3 | binds |
| B4 | binds |
| B5 | binds |
| B6 | binds |
| B7 | binds |
| B8 | binds |
| B9 | binds |
| B10 | binds |
| B11 | binds |
| B12 | binds |
| B13 | binds |
| B14 | binds |
| B15 | binds |
| B16 | binds |
| B17 | binds |
| B18 | binds |
| B19 | binds |
| B20 | binds |
